Here are results for 26 molecules from patent US20150203577A1 (Chugai, published 2015).

Positions count from the first letter of the chain named.

B1: H237-MB476/MRAL-k0 (antibody, mouse IgG1, kappa)
heavy: QVQLQESGPGLVKPSETLSLTCAVSGHSISHDHAWSWVRQPPGEGLEWIGFISYSGITNYNPSLQGRVTISRDNSKNTLYLQMNSLRAEDTAVYYCARSLARTTAMDYWGEGTLVTVSSAKTTPPSVYPLAPGSAAQTNSMVTLGCLVKGYFPEPVTVTWNSGSLSSGVHTFPAVLQSDLYTLSSSVTVPSSTWPSETVTCNVAHPASSTKVDKKIVPRDCGCKPCICQPNEVEEVFIFPPKPKDVLTITLTPKVTCVVVDISKDDPEVQFSWFVDDVEVHTAQTQPREEQFNSTFRSVSELPIMHQDWLNGKEFKCRVNSAAFPAPIEKTISKTKGRPKAPQVYTIPPPKEQMAKDKVSLTCMITDFFPEDITVEWQWNGQPAENYKNTQPIMDTDGSYFVYSKLNVQKSNWEAGNTFTCSVLHEGLHNHHTEKSLSHSPGK
light: not shown
notes: copies: 2 + 2
B2: H237-MB594/MRAL-k0 (antibody, mouse IgG1, kappa)
heavy: B1 heavy with Q229E, P230V, N231P, V233E, E235S
light: not shown
notes: copies: 2 + 2
B3: H237-mIgG1/MRAL-k0 (antibody)
heavy: B1 heavy with Q229T, P230V, N231P, E234S, E235S
light: not shown
notes: copies: 2 + 2
B4: H237-MB698/MRAL-k0 (antibody, mouse IgG1, kappa)
heavy: B1 heavy with Q229E, P230V, N231P, V233E, E235L
light: not shown
notes: copies: 2 + 2
B5: H237-MB695/MRAL-k0 (antibody, mouse IgG1, kappa)
heavy: B1 heavy with Q229T, E235F
light: not shown
notes: copies: 2 + 2
B6: H237-MB693/MRAL-k0 (antibody, mouse IgG1, kappa)
heavy: B1 heavy with Q229T, P230D, N231Y, E235Y
light: not shown
notes: copies: 2 + 2
B7: H237-MB696/MRAL-k0 (antibody, mouse IgG1, kappa)
heavy: B1 heavy with Q229E, P230V, E235F
light: not shown
notes: copies: 2 + 2
B8: H237-MB702/MRAL-k0 (antibody, mouse IgG1, kappa)
heavy: B1 heavy with Q229T, P230A, N231Y, E235N
light: not shown
notes: copies: 2 + 2
B9: H237-MB628/MRAL-k0 (antibody)
heavy: B1 heavy with Q229E, N231A, E235L
light: not shown
notes: copies: 2 + 2
B10: H237-MB645/MRAL-k0 (antibody, mouse IgG1, kappa)
heavy: B1 heavy with Q229E, P230V, N231Y, E235Y
light: not shown
notes: copies: 2 + 2
B11: H237-MB689/MRAL-k0 (antibody, mouse IgG1, kappa)
heavy: B1 heavy with Q229E, P230V, N231P, E235N
light: not shown
notes: copies: 2 + 2
B12: H237-MB687/MRAL-k0 (antibody)
heavy: B1 heavy with Q229E, N231P, E235L
light: not shown
notes: copies: 2 + 2
B13: H237-MB636/MRAL-k0 (antibody, mouse IgG1, kappa)
heavy: B1 heavy with Q229E, P230V, N231Y, E235N
light: not shown
notes: copies: 2 + 2
B14: H237-MB632/MRAL-k0 (antibody, mouse IgG1, kappa)
heavy: B1 heavy with Q229E, P230A, N231Y, E235N
light: not shown
notes: copies: 2 + 2
B15: H237-MB692/MRAL-k0 (antibody, mouse IgG1, kappa)
heavy: B1 heavy with Q229E, N231P, E235Y
light: not shown
notes: copies: 2 + 2
B16: H237-MB694/MRAL-k0 (antibody)
heavy: B1 heavy with Q229E, P230D, N231P, E235Y
light: not shown
notes: copies: 2 + 2
B17: H237-MB700/MRAL-k0 (antibody, mouse IgG1, kappa)
heavy: B1 heavy with Q229E, P230V, N231P, V233E, E235Y
light: not shown
notes: copies: 2 + 2
B18: H237-MB642/MRAL-k0 (antibody, mouse IgG1, kappa)
heavy: B1 heavy with Q229E, P230D, N231Y, E235Y
light: not shown
notes: copies: 2 + 2
B19: H237-MB657/MRAL-k0 (antibody, mouse IgG1, kappa)
heavy: B1 heavy with Q229E, E235F
light: not shown
notes: copies: 2 + 2
B20: H237-MB703/MRAL-k0 (antibody, mouse IgG1, kappa)
heavy: B1 heavy with Q229E, P230A, N231P, E235N
light: not shown
notes: copies: 2 + 2
B21: H237-MB646/MRAL-k0 (antibody, mouse IgG1, kappa)
heavy: B1 heavy with Q229E, N231A, E235Y
light: not shown
notes: copies: 2 + 2
B22: H237-MB685/MRAL-k0 (antibody, mouse IgG1, kappa)
heavy: B1 heavy with Q229T, N231A, E235L
light: not shown
notes: copies: 2 + 2
B23: H237-MB688/MRAL-k0 (antibody, mouse IgG1, kappa)
heavy: B1 heavy with Q229T, P230V, N231Y, E235N
light: not shown
notes: copies: 2 + 2
B24: H237-MB690/MRAL-k0 (antibody, mouse IgG1, kappa)
heavy: B1 heavy with Q229T, N231A, E235Y
light: not shown
notes: copies: 2 + 2
B25: H237-MB686/MRAL-k0 (antibody, mouse IgG1, kappa)
heavy: B1 heavy with Q229E, P230V, N231A, E235L
light: not shown
notes: copies: 2 + 2
B26: H237-MB691/MRAL-k0 (antibody, mouse IgG1, kappa)
heavy: B1 heavy with Q229E, P230V, N231A, E235Y
light: not shown
notes: copies: 2 + 2

The first assay deals with T1, mouse FcγRIII extracellular domain, C-terminal His tag (mouse, UniProt P08508 31-215).
T1 construct: Whole entry named; also called mFcγRIII; mFcgRIII
T1 chain: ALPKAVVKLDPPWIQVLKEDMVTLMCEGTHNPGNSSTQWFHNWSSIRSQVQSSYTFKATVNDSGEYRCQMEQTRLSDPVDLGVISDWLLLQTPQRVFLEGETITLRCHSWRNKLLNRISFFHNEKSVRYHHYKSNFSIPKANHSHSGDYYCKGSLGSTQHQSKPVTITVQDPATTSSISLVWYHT
In words: SPR (Biacore T200); KD of H237-mIgG1/MRAL-k0 / KD of variant. The method, then: (§1) Each altered antibody was analyzed for its interaction with each Fcγ receptor prepared above using Biacore T100 (GE Healthcare Japan Corp.), Biacore T200 (GE Healthcare Japan Corp.), Biacore A100, or Biacore 4000. The running buffer used was HBS-EP+ (GE Healthcare Japan Corp.). The assay temperature was set to 25° C. The sensor chips used were chips prepared by immobilizing Protein L (ACTIGEN or BioVision) onto Series S Sensor Chip CM5 (GE Healthcare Japan Corp.) or Series S Sensor Chip CM4 (GE Healthcare Japan Corp.) by the amine coupling method.
(§2) In order to calculate the KD value of each altered antibody for FcγR, kinetic analysis was conducted according to the following method: first, the antibody of interest was captured onto any of these chips and allowed to interact with mFcγR diluted with a running buffer. For the obtained sensorgram, the assay results were globally fit into the 1:1 Langmuir binding model using Biacore Evaluation Software to calculate an association rate constant ka (L/mol/s) and a dissociation rate constant kd (1/s). From these values, the dissociation constant KD (mol/L) was calculated.
Background: Surface plasmon resonance follows binding to a sensor surface in real time, without labels.
Take B1: the “relative mFcγRIII-binding activity (mIgG1 = 1)” value was 2.6 fold.

The next assay addresses T2, mouse FcγRII extracellular domain, C-terminal His tag (mouse, UniProt P08101 30-210).
T2 construct: Whole entry named; also called mFcγRII; mFcgRII
T2 sequence: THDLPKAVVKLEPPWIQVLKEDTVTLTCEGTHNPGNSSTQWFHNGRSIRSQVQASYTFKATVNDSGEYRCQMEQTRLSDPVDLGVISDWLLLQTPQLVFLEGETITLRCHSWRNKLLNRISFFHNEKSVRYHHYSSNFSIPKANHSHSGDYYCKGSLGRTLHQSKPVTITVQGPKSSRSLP
The assay is described as above.
As for B2, the “relative mFcγRII-binding activity (mIgG1 = 1)” value was 1.85 fold.

The target of a further assay is T1, mouse FcγRIII extracellular domain, …. The assay is described as above. The source holds these as a separate data set.
Turning to B2, the “relative mFcγRIII-binding activity (mIgG1 = 1)” value was determined as 0.1 fold.

Another assay has as its target T2, mouse FcγRII extracellular domain, …. In words: SPR (Biacore T200), 1:1 fit. Here is the method: as §1, §2
In the case of B1, binding was put at a Kd of 0.804 nM.

In another assay the target is T1, mouse FcγRIII extracellular domain, …. In words: SPR (Biacore T200), 1:1 fit. The method, then: as §1, §2
B1 registered a Kd of 107 nM.

A further assay deals with T3, mouse FcγRIII extracellular domain with C-terminal His tag (mouse, UniProt P08508 31-215).
T3 construct: Made on the basis of NCBI NP-034318.2; also called mFcγRIII; mFcgRIII
T3 chain: T1 chain
In words: SPR Biacore T200.
In turn, B3 came in with a Kd of 282 nM.

The next assay has as its target T3, mouse FcγRIII extracellular domain with …. Nature of the assay: SPR Biacore T200. The source holds these as a separate data set. Here is the method: as §1, §2
On to B3, for which the equilibrium dissociation constant (Kd) amounted to 282 nM.

The next assay has as its target T2, mouse FcγRII extracellular domain, …. In words: SPR (Biacore T200); KD of H237-mIgG1/MRAL-k0 / KD of variant. This is another data set of the same source.
From the text: (§3) The antibody H chain variable region used was the variable region H237 (SEQ ID NO: 1) of the H chain VH3-IgG1 of the anti-IL-6 receptor antibody Fv4-IgG1 described in WO2009/125825. The antibody L chain commonly used was the L chain MRAL-k0 (SEQ ID NO: 2) of the anti-IL-6 receptor antibody tocilizumab. The aforementioned 7 variants were used as templates to substitute the amino acids at the alteration sites by the amino acids before the alteration. These variants were expressed and purified by the method of Reference Example 1 and evaluated for their binding to mFcγRII and mFcγRIII by the method of Reference Example 2 using Biacore T200.
as §1
As for B4, the “relative mFcγRII-binding activity (mIgG1 = 1)” value is 0.194 fold.
On to B5, for which the “relative mFcγRII-binding activity (mIgG1 = 1)” value amounted to 0.435 fold.
B2: the “relative mFcγRII-binding activity (mIgG1 = 1)” value came to 1.3 fold.
In the case of B6, the “relative mFcγRII-binding activity (mIgG1 = 1)” value turned out to be 1.22 fold.
The same measure, in the same setting: with B7 the figure was 0.4 fold.
Consider B8, for which the “relative mFcγRII-binding activity (mIgG1 = 1)” value came to 0.96 fold.
With B9, the “relative mFcγRII-binding activity (mIgG1 = 1)” value was found to be 2.09 fold.
Regarding B10, the “relative mFcγRII-binding activity (mIgG1 = 1)” value came out at 1.06 fold.
Same read-out and setting: with B11 the figure was 0.413 fold.
B12: the “relative mFcγRII-binding activity (mIgG1 = 1)” value was determined as 0.943 fold.
On to B13, for which the “relative mFcγRII-binding activity (mIgG1 = 1)” value is 3.92 fold.
As to B14, the “relative mFcγRII-binding activity (mIgG1 = 1)” value is 3.72 fold.
Consider B15, for which the “relative mFcγRII-binding activity (mIgG1 = 1)” value amounted to 1.75 fold.
Consider B16, for which the “relative mFcγRII-binding activity (mIgG1 = 1)” value came out at 0.544 fold.
For B17, the “relative mFcγRII-binding activity (mIgG1 = 1)” value amounted to 0.559 fold.
Take B18: the “relative mFcγRII-binding activity (mIgG1 = 1)” value amounted to 1.65 fold.
In the case of B19, the “relative mFcγRII-binding activity (mIgG1 = 1)” value is 1.54 fold.
The same measure, in the same setting: with B20 the figure was 0.943 fold; with B21, 3.8 fold; with B22, 0.606 fold.
Turning to B23, the “relative mFcγRII-binding activity (mIgG1 = 1)” value was 0.634 fold.
Take B24: the “relative mFcγRII-binding activity (mIgG1 = 1)” value amounted to 1.6 fold.
The same measure, in the same setting: with B25 the figure was 0.167 fold; with B26, 0.582 fold.

The target of another assay is T1, mouse FcγRIII extracellular domain, …. Described as above. This is another data set of the same source.
From the text: as §3, §1
Consider B4, for which the “relative mFcγRIII-binding activity (mIgG1 = 1)” value came to 0.024 fold.
The same measure, in the same setting: with B5 the figure was 0.088 fold; with B2, 0.057 fold.
Take B6: the “relative mFcγRIII-binding activity (mIgG1 = 1)” value turned out to be 0.094 fold.
As to B7, the “relative mFcγRIII-binding activity (mIgG1 = 1)” value stood at 0.094 fold.
As for B8, the “relative mFcγRIII-binding activity (mIgG1 = 1)” value was found to be 0.145 fold.
As for B9, the “relative mFcγRIII-binding activity (mIgG1 = 1)” value is 0.083 fold.
With B10, the “relative mFcγRIII-binding activity (mIgG1 = 1)” value was found to be 0.217 fold.
As for B11, the “relative mFcγRIII-binding activity (mIgG1 = 1)” value is 0.075 fold.
Turning to B12, the “relative mFcγRIII-binding activity (mIgG1 = 1)” value worked out at 0.096 fold.
As to B13, the “relative mFcγRIII-binding activity (mIgG1 = 1)” value is 0.172 fold.
For the molecule B14, the “relative mFcγRIII-binding activity (mIgG1 = 1)” value amounted to 0.236 fold.
Consider B15, for which the “relative mFcγRIII-binding activity (mIgG1 = 1)” value stood at 0.115 fold.
For the molecule B16, the “relative mFcγRIII-binding activity (mIgG1 = 1)” value came out at 0.031 fold.
For the molecule B17, the “relative mFcγRIII-binding activity (mIgG1 = 1)” value was 0.044 fold.
As to B18, the “relative mFcγRIII-binding activity (mIgG1 = 1)” value stood at 0.1 fold.
B19: the “relative mFcγRIII-binding activity (mIgG1 = 1)” value was 0.087 fold.
Same read-out and setting: the value for B20 was 0.104 fold; that for B21 was 0.176 fold.
Regarding B22, the “relative mFcγRIII-binding activity (mIgG1 = 1)” value amounted to 0.093 fold.
On the same count and under the same terms, with B23 the figure was 0.081 fold; with B24, 0.188 fold.
With B25, the “relative mFcγRIII-binding activity (mIgG1 = 1)” value came to 0.052 fold.
Still for that read-out and setting: the value for B26 was 0.071 fold.

By Kd is commonly meant the concentration at which binding is half-saturated. Read a low Kd as a tighter complex.
